The values that follow come from patent US20240158472A1, “FERRITIN VARIANTS WITH INCREASED STABILITY AND COMPLEXATION ABILITY” (Cellis AG, priority 2021, published 2024).

Data set [1] in a line: Native PAGE gel after doxorubicin encapsulation and purification. It is filed as physicochemical. Particulars: after doxorubicin encapsulation; mutants carry added K54E, K72E, K87Q, K144E, C91S, C103S. The text has this:
Native PAGE gel has been performed in order to check the size of the protein after encapsulation and purification.

Data set [2] is described as follows: Native gel after storage in freezer (-80 degrees Celsius) and thawing. Type of data set: physicochemical. Particulars: ferritin cages with doxorubicin, mutants of b203.
Data set [3] concerns MDA-MB 231, Skov3 and 4T1. The experiment in a line: Tumour cell viability after 72 h co-culture with macrophages carrying doxorubicin packed ferritin. Type of data set: cell-based. Conditions: ferritin cages filled with doxorubicin 1 mg/ml. The procedure:
FIG. 7: Graphs of tumour cell viability after 72 h co-culture with macrophages. The concentration of ferritin cages filled with doxorubicin was the same for each variant of ferritin and was equal to 1 mg/ml.
The doxorubicin packed proteins were inserted into macrophages and then co-cultured with breast and ovarian cancer cell lines: MDA-MB 231, Skov3 and 4T1. The number of viable cells after co-culture was the lowest for the Q11E-Q15E mutant (FIG. 7).

B1: Q11E-Q15E mutant: Examples 3-8 ferritin variant based on Q11E-Q15E with added K54E, K72E, K87Q, K144E, C91S and C103S (protein, UniProt P02794 1-183, looked up, variant Q11E Q15E K54E K72E K87Q K144E C91S C103S)
Ferritin heavy chain: MTTASTSQVRENYHEDSEAAINRQINLELYASYVYLSMSYYFDRDDVALKNFAEYFLHQSHEEREHAEKLMELQNQRGGRIFLQDIQKPDSDDWESGLNAMESALHLEKNVNQSLLELHKLATDKNDPHLCDFIETHYLNEQVEAIKELGDHVTNLRKMGAPESGLAEYLFDKHTLGDSDNES
modifications: doxorubicin-loaded form also
Regarding B1, the “forms on native gel (aggregates versus 24-mers)” value in data set [1] was “present as 24-mers (homogeneous cages)”. The “aggregation of cages after storage” value in data set [2] was “still present as 24-mers (homogeneous cages) after storage”. Also, the “number of viable cells after co-culture” value in data set [3] is reported as “lowest”.
